Measured values published in patent publication US20250025478.

3×-FLAG-RNF213^Y1275F, sequence (chain, as listed by the source Y1275F): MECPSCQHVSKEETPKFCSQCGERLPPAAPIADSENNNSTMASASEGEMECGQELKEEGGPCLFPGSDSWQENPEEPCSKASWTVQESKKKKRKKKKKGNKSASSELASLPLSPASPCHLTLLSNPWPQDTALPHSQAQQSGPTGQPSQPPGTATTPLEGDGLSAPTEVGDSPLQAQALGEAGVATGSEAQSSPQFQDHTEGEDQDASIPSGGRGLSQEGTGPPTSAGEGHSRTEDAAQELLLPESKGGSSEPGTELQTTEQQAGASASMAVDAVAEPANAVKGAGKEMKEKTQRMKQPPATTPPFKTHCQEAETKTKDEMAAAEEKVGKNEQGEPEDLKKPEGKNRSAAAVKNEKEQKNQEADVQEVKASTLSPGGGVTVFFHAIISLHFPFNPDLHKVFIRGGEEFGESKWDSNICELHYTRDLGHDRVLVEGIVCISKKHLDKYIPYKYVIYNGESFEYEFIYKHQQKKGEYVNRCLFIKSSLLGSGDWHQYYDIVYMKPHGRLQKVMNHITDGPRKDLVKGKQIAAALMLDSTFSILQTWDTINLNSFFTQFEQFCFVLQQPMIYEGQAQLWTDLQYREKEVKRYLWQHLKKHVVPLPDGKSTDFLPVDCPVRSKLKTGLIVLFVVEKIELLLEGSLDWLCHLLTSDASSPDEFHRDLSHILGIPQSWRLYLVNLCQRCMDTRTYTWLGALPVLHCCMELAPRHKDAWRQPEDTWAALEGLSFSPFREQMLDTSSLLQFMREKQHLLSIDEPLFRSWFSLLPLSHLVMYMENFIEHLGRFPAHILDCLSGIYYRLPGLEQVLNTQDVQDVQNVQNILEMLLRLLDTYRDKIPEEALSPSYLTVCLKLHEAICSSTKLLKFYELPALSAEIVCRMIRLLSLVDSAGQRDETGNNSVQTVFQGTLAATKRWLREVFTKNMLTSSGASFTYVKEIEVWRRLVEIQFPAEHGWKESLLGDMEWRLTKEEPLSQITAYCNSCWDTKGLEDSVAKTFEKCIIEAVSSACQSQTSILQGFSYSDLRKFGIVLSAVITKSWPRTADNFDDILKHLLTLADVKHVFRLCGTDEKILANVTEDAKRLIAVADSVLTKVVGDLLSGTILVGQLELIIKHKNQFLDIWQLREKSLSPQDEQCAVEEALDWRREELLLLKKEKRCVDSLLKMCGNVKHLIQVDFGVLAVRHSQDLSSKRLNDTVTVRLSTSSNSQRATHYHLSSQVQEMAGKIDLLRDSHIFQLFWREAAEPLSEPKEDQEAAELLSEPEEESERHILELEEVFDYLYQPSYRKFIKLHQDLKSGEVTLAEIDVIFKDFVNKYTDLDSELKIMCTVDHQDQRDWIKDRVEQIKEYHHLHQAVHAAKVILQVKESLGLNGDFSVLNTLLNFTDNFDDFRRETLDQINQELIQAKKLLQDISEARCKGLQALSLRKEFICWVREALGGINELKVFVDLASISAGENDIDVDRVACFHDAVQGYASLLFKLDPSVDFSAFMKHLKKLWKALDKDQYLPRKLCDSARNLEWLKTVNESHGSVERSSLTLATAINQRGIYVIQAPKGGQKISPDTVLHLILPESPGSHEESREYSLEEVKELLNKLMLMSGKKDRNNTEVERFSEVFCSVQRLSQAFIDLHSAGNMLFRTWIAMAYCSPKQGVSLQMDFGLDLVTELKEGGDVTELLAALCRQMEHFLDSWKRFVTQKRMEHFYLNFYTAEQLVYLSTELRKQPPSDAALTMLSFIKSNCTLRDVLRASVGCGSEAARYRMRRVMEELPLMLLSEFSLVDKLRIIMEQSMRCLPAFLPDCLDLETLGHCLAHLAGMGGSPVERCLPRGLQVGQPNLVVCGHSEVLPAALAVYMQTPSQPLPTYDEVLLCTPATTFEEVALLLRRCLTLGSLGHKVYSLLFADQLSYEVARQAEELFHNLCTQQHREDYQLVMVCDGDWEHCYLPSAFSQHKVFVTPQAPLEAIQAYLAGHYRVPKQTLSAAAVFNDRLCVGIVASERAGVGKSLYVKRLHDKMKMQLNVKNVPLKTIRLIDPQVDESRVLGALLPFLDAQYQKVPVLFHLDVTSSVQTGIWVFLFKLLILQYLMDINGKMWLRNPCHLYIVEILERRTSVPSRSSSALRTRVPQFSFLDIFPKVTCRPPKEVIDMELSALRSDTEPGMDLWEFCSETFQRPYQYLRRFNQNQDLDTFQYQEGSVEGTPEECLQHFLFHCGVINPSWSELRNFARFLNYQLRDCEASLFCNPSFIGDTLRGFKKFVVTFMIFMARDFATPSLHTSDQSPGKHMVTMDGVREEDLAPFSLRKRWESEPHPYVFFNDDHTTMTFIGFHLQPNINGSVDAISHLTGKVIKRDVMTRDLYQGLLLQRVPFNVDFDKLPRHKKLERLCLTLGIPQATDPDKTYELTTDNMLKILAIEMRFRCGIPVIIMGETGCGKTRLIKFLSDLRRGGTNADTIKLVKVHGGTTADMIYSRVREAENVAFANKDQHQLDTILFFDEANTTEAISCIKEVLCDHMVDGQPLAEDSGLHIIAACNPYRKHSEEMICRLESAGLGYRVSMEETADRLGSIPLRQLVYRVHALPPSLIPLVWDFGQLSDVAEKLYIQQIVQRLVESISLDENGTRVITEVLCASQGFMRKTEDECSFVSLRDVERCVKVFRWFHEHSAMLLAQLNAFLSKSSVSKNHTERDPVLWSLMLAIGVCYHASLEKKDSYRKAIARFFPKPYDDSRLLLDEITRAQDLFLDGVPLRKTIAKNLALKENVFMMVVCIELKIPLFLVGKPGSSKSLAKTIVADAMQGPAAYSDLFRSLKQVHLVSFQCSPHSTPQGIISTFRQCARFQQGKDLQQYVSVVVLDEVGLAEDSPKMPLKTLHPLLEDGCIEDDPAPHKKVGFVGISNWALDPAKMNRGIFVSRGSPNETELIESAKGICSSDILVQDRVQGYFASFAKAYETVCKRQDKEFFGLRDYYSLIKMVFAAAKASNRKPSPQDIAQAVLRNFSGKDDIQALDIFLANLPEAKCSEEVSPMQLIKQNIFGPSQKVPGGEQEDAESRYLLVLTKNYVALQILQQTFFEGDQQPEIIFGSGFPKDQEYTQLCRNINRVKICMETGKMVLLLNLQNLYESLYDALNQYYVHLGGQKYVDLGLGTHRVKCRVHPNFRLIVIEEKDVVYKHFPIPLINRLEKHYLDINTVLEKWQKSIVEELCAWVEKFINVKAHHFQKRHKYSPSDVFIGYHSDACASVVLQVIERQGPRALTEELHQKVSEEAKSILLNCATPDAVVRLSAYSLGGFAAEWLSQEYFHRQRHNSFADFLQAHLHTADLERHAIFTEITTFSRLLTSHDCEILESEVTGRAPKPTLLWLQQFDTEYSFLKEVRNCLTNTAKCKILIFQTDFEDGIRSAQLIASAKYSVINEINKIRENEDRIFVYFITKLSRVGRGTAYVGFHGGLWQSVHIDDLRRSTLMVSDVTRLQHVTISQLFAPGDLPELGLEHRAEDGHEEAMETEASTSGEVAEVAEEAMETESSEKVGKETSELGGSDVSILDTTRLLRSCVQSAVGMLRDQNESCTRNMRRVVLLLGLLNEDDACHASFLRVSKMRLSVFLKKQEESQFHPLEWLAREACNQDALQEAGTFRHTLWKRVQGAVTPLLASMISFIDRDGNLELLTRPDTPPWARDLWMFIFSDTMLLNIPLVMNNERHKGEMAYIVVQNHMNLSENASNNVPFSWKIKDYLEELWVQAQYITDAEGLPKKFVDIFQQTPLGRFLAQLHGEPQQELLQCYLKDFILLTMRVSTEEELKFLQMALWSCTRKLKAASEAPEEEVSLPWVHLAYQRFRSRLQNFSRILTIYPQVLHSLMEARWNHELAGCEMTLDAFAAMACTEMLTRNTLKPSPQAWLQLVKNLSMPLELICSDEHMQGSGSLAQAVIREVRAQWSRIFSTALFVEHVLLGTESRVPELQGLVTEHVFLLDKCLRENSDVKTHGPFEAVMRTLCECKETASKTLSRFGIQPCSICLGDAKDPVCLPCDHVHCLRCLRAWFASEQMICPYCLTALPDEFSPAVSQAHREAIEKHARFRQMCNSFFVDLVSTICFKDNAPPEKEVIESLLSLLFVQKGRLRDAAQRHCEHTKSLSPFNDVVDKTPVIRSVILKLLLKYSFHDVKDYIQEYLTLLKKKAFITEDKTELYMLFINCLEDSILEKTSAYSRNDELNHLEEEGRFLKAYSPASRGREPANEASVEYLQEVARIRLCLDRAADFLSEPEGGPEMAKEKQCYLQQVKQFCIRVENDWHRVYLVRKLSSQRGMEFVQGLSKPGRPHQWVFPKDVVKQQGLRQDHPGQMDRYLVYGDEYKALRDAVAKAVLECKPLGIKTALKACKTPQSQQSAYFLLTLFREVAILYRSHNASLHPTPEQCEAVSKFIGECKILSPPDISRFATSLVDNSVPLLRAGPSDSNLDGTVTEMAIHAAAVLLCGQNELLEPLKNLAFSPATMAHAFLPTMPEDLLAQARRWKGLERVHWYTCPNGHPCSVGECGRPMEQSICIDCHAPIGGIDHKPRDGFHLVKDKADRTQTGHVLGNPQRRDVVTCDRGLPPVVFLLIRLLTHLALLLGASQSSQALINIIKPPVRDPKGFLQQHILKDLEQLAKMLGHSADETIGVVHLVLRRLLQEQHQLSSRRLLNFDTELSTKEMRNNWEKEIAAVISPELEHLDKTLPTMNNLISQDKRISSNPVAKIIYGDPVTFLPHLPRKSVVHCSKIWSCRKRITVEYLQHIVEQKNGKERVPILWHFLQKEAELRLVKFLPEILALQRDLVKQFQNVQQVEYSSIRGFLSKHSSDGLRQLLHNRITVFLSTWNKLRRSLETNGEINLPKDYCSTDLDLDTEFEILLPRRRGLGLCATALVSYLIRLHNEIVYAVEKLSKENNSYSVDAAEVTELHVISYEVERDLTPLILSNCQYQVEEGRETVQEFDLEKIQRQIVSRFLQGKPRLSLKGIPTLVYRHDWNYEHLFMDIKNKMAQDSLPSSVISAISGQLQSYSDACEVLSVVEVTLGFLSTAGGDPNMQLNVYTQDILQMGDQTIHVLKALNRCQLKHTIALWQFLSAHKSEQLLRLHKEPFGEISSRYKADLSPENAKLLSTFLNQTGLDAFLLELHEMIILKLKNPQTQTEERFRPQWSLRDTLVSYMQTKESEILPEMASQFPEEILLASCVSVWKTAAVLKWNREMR

B1: recombinant His-tagged ABL1 (protein)
chain: SPNYDKWEMERTDITMKHKLGGGQYGEVYEGVWKKYSLTVAVKTLKEDTMEVEEFLKEAAVMKEIKHPNLVQLLGVCTREPPFYIITEFMTYGNLLDYLRECNRQEVNAVVLLYMATQISSAMEYLEKKNFIHRDLAARNCLVGENHLVKVADFGLSRLMTGDTYTAHAGAKFPIKWTAPESLAYNKFSIKSDVWAFGVLLWEIATYGMSPYPGIDLSQVYELLEKDYRMERPEGCPEKVYELMRACWQWNPSDRPSFAEIHQAFETMFQESSISDEVEKELGK
in vitro kinase assay (tyrosine phosphorylation) (3×-FLAG-RNF213): His-ABL1 phosphorylated WT-RNF213, but not RNF213^Y1275F in a time- and ABL1-concentration-dependent manner | in vitro kinase assay (tyrosine phosphorylation) (3×-FLAG-RNF213^Y1275F): His-ABL1 phosphorylated WT-RNF213, but not RNF213^Y1275F
